From paper PMC3642079 come the findings set out here.

B1: unnamed (parent)
chain 1: MNLEGGGRGGEFGMSAVSCGNGKLRQWLIDQIDSGKYPGLVWENEEKSIFRIPWKHAGKQDYNREEDAALFKAWALFKGKFREGIDKPDPPTWKTRLRCALNKSNDFEELVERSQLDISDPYKVYRIVPEGAKKGAKQLTLEDPQMSMSHPYTMTTPYPSLPAQQVHNYMMPPLDRSWRDYVPDQPHPEIPYQCPMTFGPRGHHWQGPACENGCQVTGTFYACAPPESQAPGVPTEPSIRSAEALAFSDCRLHICLYYREILVKELTTSSPEGCRISHGHTYDASNLDQVLFPYPEDNGQRKNIEKLLSHLERGVVLWMAPDGLYAKRLCQSRIYWDGPLALCNDRPNKLERDQTCKLFDTQQFLSELQAFAHHGRSLPRFQVTLCFGEEFPDPQRQRKLITAHVEPLLARQLYYFAQQNSGHFLRGYDLPEHISNPEDYHRSIRHSSIQE
chain 2: LILDSGLDTQHILCFVMAARQRLQDIRRGP
B2: unnamed (parent)
chain 1: MCDRNGGRRLRQWLIEQIDSSMYPGLIWENEEKSMFRIPWKHAGKQDYNQEVDASIFKAWAVFKGKFKEGDKAEPATWKTRLRCALNKSPDFEEVTDRSQLDISEPYKVYRIVPEEEQKCKLGVATAGCVNEVTEMECGRSEIDELIKEPSVDDYMGMIKRSPSPPEACRSQLLPDWWAQQPSTGVPLVTGYTTYDAHHSAFSQMVISFYYGGKLVGQATTTCPEGCRLSLSQPGLPGTKLYGPEGLELVRFPPADAIPSERQRQVTRKLFGHLERGVLLHSSRQGVFVKRLCQGRVFCSGNAVVCKGRPNKLERDEVVQVFDTSQFFRELQQFYNSQGRLPDGRVVLCFGEEFPDMAPLRSKLILVQIEQLYVRQLAEEAGKSCGAGSVMQAPEEPPPDQVFRMFPDICASHQRSFFRENQQITV
chain 2: B1 chain 2

Variants of B1 are the subject of one experiment. Kind of experiment: GST pull-down of S35-radiolabeled in vitro translated protein. Particulars: with partner chain of the complex shown; 5% of IVT input (input lane = 5 RBU); GST control lane = 0.5 RBU; parent: 14.1.
chain 2 F15A: the response turned out to be 0.5 RBU. Same read-out and setting: with chain 2 R20G R22G the figure was 4.9 RBU; with chain 2 C14A, 14 RBU.

The variants in the next experiment derive from B2. The description is as above. Particulars: with partner chain of the complex shown; 5% of IVT input (input lane = 5 RBU); GST control lane = 0.4 RBU; parent: 3.9.
chain 2 C14A: the response was found to be 3.2 RBU. Still for that read-out and setting: to chain 2 R20G R22G belongs 0.7 RBU; to chain 2 F15A, 0.6 RBU.
